Laboratory results published in article PMC3617294, “Novel Tryptophan Metabolism by a Potential Gene Cluster That Is Widely Distributed among Actinomycetes” (The Journal of Biological Chemistry, 2013).

Columns and labels:
SCO7468 = SCO7468 (Streptomyces coelicolor, UniProt Q8CJJ9); test: methanol denaturation and reverse-phase HPLC of co-purified flavin; format: binding; details: tightly bound
[1] = substrate: N[C@@H](Cc1c[nH]c2ccccc12)C(=O)O; test: LC-MS/MS quantification of aldoxime product (IAOx); format: biochemical, Streptomyces coelicolor; details: 1 mM NADPH, 20 μM FAD, 100 mM Tris-HCl pH 8.0, 30 °C
[2] = substrate: CC(C)=CCc1ccc2[nH]cc(C[C@H](N)C(=O)O)c2c1; test: LC-MS/MS quantification of aldoxime product (5-DMAIAOx); format: biochemical, Streptomyces coelicolor; details: 1 mM NADPH, 20 μM FAD, 100 mM Tris-HCl pH 8.0, 30 °C
purified protein [3] = substrate: CC(C)=CCOP(=O)(O)OP(=O)(O)O; test: purified protein; format: biochemical, Streptomyces coelicolor; details: L-tryptophan 1 mM fixed, 2 mM MgCl2, 100 mM Tris-HCl pH 8.0, 30 °C
purified protein [4] = substrate: N[C@@H](Cc1c[nH]c2ccccc12)C(=O)O; test: purified protein; format: biochemical, Streptomyces coelicolor; details: DMAPP 1 mM fixed, 2 mM MgCl2, 100 mM Tris-HCl pH 8.0, 30 °C

## Cc1cc2nc3c(=O)[nH]c(=O)nc-3n(C[C@H](O)[C@H](O)[C@H](O)COP(=O)(O)OP(=O)(O)OC[C@H]3O[C@@H](n4cnc5c(N)ncnc54)[C@H](O)[C@@H]3O)c2cc1C [FAD]
SCO7468
  methanol denaturation and reverse-phase HPLC of co-purified flavin: FAD existed in the recombinant SCO7468 protein as a tightly bound form

B1: SCO7468 (Streptomyces coelicolor A3(2)) (protein)
chain: MRVCVIGAGLSGLAMGHALKERGISFVCLEKAPDVGGIWRQPGAGERGPGYQSLHLNTARQLTGYADFPMPSDYPLYPRHDQVAAYLRSFAEWAGLLDHVELRTEVLSVRQDSDGSWTVVSRDADGAQSARRFEQVVVASGHHTDPALPDPLPAGADSFAGTILHSLDYRDGGDFAGRRVVVVGLGASAVDIAADLSRHAERTLLSVRRGLHIVPKQVFGMSLDEIAEAPWWNEMPFAERRRWVEQALLVARGRLSDYGLPEPDHPILSSATTLSDEILSRIRHGAVTPKPAIASFESDRVVFTDGSSEAADTVVYCTGFHMTFPFLPPGCPVAADGAVELYRRIVPADRPGLYFVGLVRPAGALTRLVEAQAQWVARLVDGAAALPGTEEMREEISTYLAGIVERYGRTRGASIQVDVSPYLAEFREPLPV
[1]
  Km: (3.3 ± 0.7) ×10^3 μM
  kcat: (5.2 ± 0.4) ×10^−3 s^−1
[2]
  Km: 0.57 ± 0.1 µM
  kcat: (8.2 ± 0.7) ×10^−3 s^−1

B2: SCO7467 (Streptomyces coelicolor A3(2)) (protein)
chain: MRAASTGADPQDASTLGSFTGGQLRRLGSVAGLSRADVETYAQVLTDALGPVAQRPLSLAPPTRTFLSDDHTPVEFSLSFRPGAAPAMRVLVEPGCGATSLADNGRAGLEAVRTMARRWHFTTDALDELLDLFLPPAPQGPLALWCALELRPGGVPGVKVYLNPAVGGEERSAATVREALRRLGHHQAFDSLPQGSGYPFLALDLGNWTEPRAKVYLRHDNLTAGRAARLSRTDSGLVPTAVEGFFRTAAGPGSDAGGLDGRPAQSCHSFTDPGAERPSGFTLYIPVRDYVRHDGEALARASTVLHHHGMDASVLHRALAALTERRPEDGVGLIAYLALAGQRDQPPRVTAYLSSEAYTVRPPVVETVRQPLSVG
notes: N-terminal His8 tag (pHIS8), expressed in E. coli BL21(DE3), Ni-NTA purified, 40 kDa, monomer
Purified protein [3]
  Km: 50 ± 2 µM
  kcat: 0.40 ± 0.1 s⁻¹
Purified protein [4]
  Km: 80 ± 6 µM
  kcat: 0.40 ± 0.1 s⁻¹
